{"source": "paper PMC4231051", "about": "“Protein Thermal Stability Enhancement by Designing Salt Bridges: A Combined Computational and Experimental Study” (PLoS ONE, 2014)", "data": [{"target": "the molecule itself", "test": "SEC; gel filtration during purification (HiLoad 26/60 Superdex 200 prep-grade), 50 mM citrate phosphate buffer, pH 7; data not shown", "values": [{"protein": "β-glucosidase A (BglA) from Bacillus polymyxa, wild type (enzyme, β-glucosidase A (BglA, EC 3.2.1.21) from Bacillus polymyxa, family 1 glycosyl hydrolase; Plasmid pBglA; its vector and construct limits are not described; also called wild type enzyme; source: E. coli BL21 Star (DE3), purified (HisTrap, thrombin, HisTrap, gel filtration on Superdex 200)) TIFQFPQDFMWGTATAAYQIEGAYQEDGRGLSIWDTFAHTPGKVFNGDNGNVACDSYHRYEEDIRLMKELGIRTYRFSVSWPRIFPNGDGEVNQEGLDYYHRVVDLLNDNGIEPFCTLYHWDLPQALQDAGGWGNRRTIQAFVQFAETMFREFHGKIQHWLTFNEPWCIAFLSNMLGVHAPGLTNLQTAIDVGHHLLVAHGLSVRRFRELGTSGQIGIAPNVSWAVPYSTSEEDKAACARTISLHSDWFLQPIYQGSYPQFLVDWFAEQGATVPIQDGDMDIIGEPIDMIGINYYSMSVNRFNPEAGFLQSEEINMGLPVTDIGWPVESRGLYEVLHYLQKYGNIDIYITENGACINDEVVNGKVQDDRRISYMQQHLVQVHRTIHDGLHVKGYMAWSLLDNFEWAEGYNMRFGMIHVDFRTQVRTPKESYYWYRNVVSNNWLETRR", "stoichiometry N": 8}, {"protein": "β-glucosidase A (BglA) from Bacillus polymyxa, N437E mutant (enzyme, β-glucosidase A (BglA, EC 3.2.1.21) from Bacillus polymyxa with N437E, made by site-directed mutagenesis of pBglA; Same construct as m1 apart from the mutation; source: E. coli BL21 Star (DE3), purified (HisTrap, thrombin, HisTrap, gel filtration on Superdex 200)) TIFQFPQDFMWGTATAAYQIEGAYQEDGRGLSIWDTFAHTPGKVFNGDNGNVACDSYHRYEEDIRLMKELGIRTYRFSVSWPRIFPNGDGEVNQEGLDYYHRVVDLLNDNGIEPFCTLYHWDLPQALQDAGGWGNRRTIQAFVQFAETMFREFHGKIQHWLTFNEPWCIAFLSNMLGVHAPGLTNLQTAIDVGHHLLVAHGLSVRRFRELGTSGQIGIAPNVSWAVPYSTSEEDKAACARTISLHSDWFLQPIYQGSYPQFLVDWFAEQGATVPIQDGDMDIIGEPIDMIGINYYSMSVNRFNPEAGFLQSEEINMGLPVTDIGWPVESRGLYEVLHYLQKYGNIDIYITENGACINDEVVNGKVQDDRRISYMQQHLVQVHRTIHDGLHVKGYMAWSLLDNFEWAEGYNMRFGMIHVDFRTQVRTPKESYYWYREVVSNNWLETRR", "stoichiometry N": 4}, {"protein": "β-glucosidase A (BglA) from Bacillus polymyxa, N437D mutant (enzyme, β-glucosidase A (BglA, EC 3.2.1.21) from Bacillus polymyxa with N437D, made by site-directed mutagenesis of pBglA; Same construct as m1 apart from the mutation; source: E. coli BL21 Star (DE3), purified (HisTrap, thrombin, HisTrap, gel filtration on Superdex 200)) TIFQFPQDFMWGTATAAYQIEGAYQEDGRGLSIWDTFAHTPGKVFNGDNGNVACDSYHRYEEDIRLMKELGIRTYRFSVSWPRIFPNGDGEVNQEGLDYYHRVVDLLNDNGIEPFCTLYHWDLPQALQDAGGWGNRRTIQAFVQFAETMFREFHGKIQHWLTFNEPWCIAFLSNMLGVHAPGLTNLQTAIDVGHHLLVAHGLSVRRFRELGTSGQIGIAPNVSWAVPYSTSEEDKAACARTISLHSDWFLQPIYQGSYPQFLVDWFAEQGATVPIQDGDMDIIGEPIDMIGINYYSMSVNRFNPEAGFLQSEEINMGLPVTDIGWPVESRGLYEVLHYLQKYGNIDIYITENGACINDEVVNGKVQDDRRISYMQQHLVQVHRTIHDGLHVKGYMAWSLLDNFEWAEGYNMRFGMIHVDFRTQVRTPKESYYWYRDVVSNNWLETRR", "stoichiometry N": 4}]}]}
